Test results: patent US20110150759A1

What was measured:
C271A/C283A-EGFR (human) = C271A/C283A-EGFR (human) (UniProt P00533); experiment: flow cytometry on Ba/F3 cells, median fluorescence, average of four independent clones; reference M2 anti-FLAG antibody
wtEGFR-FLAG (human) = wtEGFR-FLAG (human) (UniProt P00533); experiment: flow cytometry on Ba/F3 cells, median fluorescence; reference M2 anti-FLAG antibody
[1] = target: soluble EGFR fragment 1-501 (human) (UniProt P00533); experiment: SPR (BIAcore), EGFR fragment 1-501 (unable to form tether)
[2] = target: EGFR 1-621 full length extracellular domain (human) (UniProt P00533); experiment: SPR (BIAcore), EGFR fragment 1-621 (can form tether)

Chain of monoclonal antibody 806 (VH): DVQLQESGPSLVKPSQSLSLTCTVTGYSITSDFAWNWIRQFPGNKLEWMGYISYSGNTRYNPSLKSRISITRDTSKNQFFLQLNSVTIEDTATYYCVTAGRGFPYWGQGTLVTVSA
Chain of monoclonal antibody 806 (VL): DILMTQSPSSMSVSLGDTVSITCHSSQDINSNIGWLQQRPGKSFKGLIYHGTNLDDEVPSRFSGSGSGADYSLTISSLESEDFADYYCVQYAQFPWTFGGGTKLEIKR

Row | Substance | ratio of antibody binding mAb 528/M2 (C271A/C283A-EGFR (human)) | ratio of antibody binding mAb 528/M2 (wtEGFR-FLAG (human)) | Kd [1] [nM] | Kd [2] [nM]
1 | mAb 528 (antibody) | 1.08 | 1.37 |  | 
2 | monoclonal antibody 806 |  |  | 34 | 389
